Consider 1 protein from PMC9063327.

Substrate in data set [1]: CC(=O)C(=O)O
Briefly: purified protein. The note with it: 50 mM potassium phosphate, 1 mM MgSO4, 0.5 mM thiamine pyrophosphate, 0.2 mM NADH; brackets are 95% CI. It is filed as biochemical, Lactococcus lactis.

Substrate in data set [2]: CC(C)C(=O)C(=O)O
Description: purified protein. As to conditions: 50 mM potassium phosphate, 1 mM MgSO4, 0.5 mM thiamine pyrophosphate, 0.2 mM NADH; brackets are 95% CI. It is filed as biochemical, Lactococcus lactis.

B1: KivD (Lactococcus lactis subsp. lactis) (protein)
chain: MYTVGDYLLDRLHELGIEEIFGVPGDYNLQFLDQIISHKDMKWVGNANELNASYMADGYARTKKAAAFLTTFGVGELSAVNGLAGSYAENLPVVEIVGSPTSKVQNEGKFVHHTLADGDFKHFMKMHEPVTAARTLLTAENATVEIDRVLSALLKERKPVYINLPVDVAAAKAEKPSLPLKKENSTSNTSDQEILNKIQESLKNAKKPIVITGHEIISFGLEKTVTQFISKTKLPITTLNFGKSSVDEALPSFLGIYNGTLSEPNLKEFVESADFILMLGVKLTDSSTGAFTHHLNENKMISLNIDEGKIFNERIQNFDFESLISSLLDLSEIEYKGKYIDKKQEDFVPSNALLSQDRLWQAVENLTQSNETIVAEQGTSFFGASSIFLKSKSHFIGQPLWGSIGYTFPAALGSQIADKESRHLLFIGDGSLQLTVQELGLAIREKINPICFIINNDGYTVEREIHGPNQSYNDIPMWNYSKLPESFGATEDRVVSKIVRTENEFVSVMKEAQADPNRMYWIELILAKEGAPKVLKKMGKLFAEQNKS
notes: full length, pET28a, N-terminal His tag (kept), expressed in E. coli BL21(DE3), Ni-NTA purified; gene from pGEM-kivD
The term kcat denotes the number of substrate molecules converted per active site and unit of time at saturation. What is called kcat/Km is the second-order rate constant that governs catalysis at low substrate concentration. B1: in the data set “purified protein [1]”, the Km is 18.81 (17.15, 20.85) mM; the Vmax is 0.0034 (0.0029, 0.0039); the turnover number (kcat) stood at 0.28 s⁻¹; the kcat/Km came to 15.1 M⁻¹ s⁻¹. In addition, in “purified protein [2]”, the Km is on record as 4.18 (4.08, 4.23) mM; the Vmax is reported as 0.0409 (0.038, 0.044); the kcat turned out to be 3.46 s⁻¹; the kcat/Km is 828 M⁻¹ s⁻¹.
